Article PMC2606909 (Molecular pharmacology, 2008)

Molecular target: purified bovine arrestin3 (bovine, UniProt P32120 1-420)
Assay: pull-down

Sequence of purified bovine arrestin3 (P32120 whole entry): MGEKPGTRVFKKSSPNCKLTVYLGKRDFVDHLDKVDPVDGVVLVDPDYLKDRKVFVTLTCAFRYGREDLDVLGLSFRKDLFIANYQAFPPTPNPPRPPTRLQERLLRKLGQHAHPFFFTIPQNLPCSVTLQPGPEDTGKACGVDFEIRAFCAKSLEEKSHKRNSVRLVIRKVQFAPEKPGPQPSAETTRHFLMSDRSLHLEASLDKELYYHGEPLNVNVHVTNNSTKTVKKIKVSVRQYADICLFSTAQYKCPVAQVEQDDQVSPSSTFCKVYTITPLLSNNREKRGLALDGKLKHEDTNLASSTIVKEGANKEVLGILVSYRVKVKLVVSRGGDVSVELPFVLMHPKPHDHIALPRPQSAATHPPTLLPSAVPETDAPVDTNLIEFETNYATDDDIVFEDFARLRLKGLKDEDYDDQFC

Binder	Kd
SIDRYTAVAMPMLYNTRYSSKRRVT (domain or fragment, rat, UniProt P61169 129-153, looked up) [GST-D2-IC2]	242 nM
SIDRYTAVVMPVHYQHGTGQSSCRRVA (domain or fragment, rat, UniProt P19020 125-151, looked up) [GST-D3-IC2]	1100 nM
